Reference: paper PMC11178655, “Dosimetry and pharmacokinetics of [^177Lu]Lu-satoreotide tetraxetan in patients with progressive neuroendocrine tumours” (European Journal of Nuclear Medicine and Molecular Imaging, 2024)
Where a SMILES comes first, the peptide text is derived from it. Bridges are numbered along the chain shown (N, C = ends). [ ]: non-standard residue; d: D form. The star is where a group is joined. DOTA = O=C(O)CN1CCN(CC(=O)O)CCN(CC(=O)*)CCN(CC(=O)O)CC1; dPhe(4-NHCONH2) = NC(=O)Nc1ccc(C[C@@H](N)C(=O)O)cc1; Dihydroorotyl(S) = O=C1C[C@@H](C(=O)*)NC(=O)N1; Phe(4-Cl) = N[C@@H](Cc1ccc(Cl)cc1)C(=O)O; Phe(4-NH2) = Nc1ccc(C[C@H](N)C(=O)O)cc1

How the values were obtained:
[1] = test system: patients with progressive, SSTR-positive NETs; assay: Time-activity curves of whole body and organs (planar whole-body imaging, SPECT/CT); assay type: in vivo, human; conditions: first treatment cycle, parts A and B; median
Procedure: In both parts A and B of the study, patients underwent planar whole-body imaging at 4 h and 1, 2, 3, and 6 days after each [^177Lu]Lu-satoreotide tetraxetan treatment cycle. Patients in part A also underwent single-photon emission computed tomography/computed tomography (SPECT/CT) at 24 h after each [^177Lu]Lu-satoreotide tetraxetan cycle. Those in part B underwent SPECT/CT, immediately before or after planar scintigraphy, at 4 h, and 1, 2, 3, and 6 days after each [^177Lu]Lu-satoreotide tetraxetan administration. Full details of the image acquisition methodology are provided in the Supplementary Information. Reconstruction parameters were set up to produce isotropic voxels of < 5 mm; voxels were continuous throughout the field of view. Anatomic coverage of the acquisition was determined according to the patients’ tumour locations on the planar whole-body scan acquisition with liver, both kidneys and spleen in the same bed position. […] VOIs for the same organs were drawn for all SPECT/CT images acquired in part B. All ROIs/VOIs were then used for activity quantification. […] Full details of the tumour delineation and activity quantification methodology are provided in the Supplementary Information.

[2] = test system: patients with progressive NETs; conditions: cited from earlier work
Description: A novel radiolabelled SSTR antagonist, [^177Lu]Lu-satoreotide tetraxetan (also known as [^177Lu]^177Lu-SSO110, [^177Lu]^177Lu-IPN01072, [^177Lu]^177Lu-OPS201 or [^177Lu]^177Lu-DOTA-JR11), has recently shown a favourable pharmacokinetic and biodistribution profile, as ... || In the present study, we observed tumour ADCs of 5.0 Gy/GBq after cycle 1 and 4.0 Gy/GBq after cycle 3. These tumour ADCs are consistent with previously reported findings from a direct comparison of [^177Lu]Lu-satoreotide tetraxetan and [^177Lu]Lu-DOTA-TATE in the same tumours and patients in a cross-over design, which reported median tumour dose of [^177Lu]Lu-satoreotide tetraxetan of 7.0 Gy/GBq (range: 4.2–29 Gy/GBq), 3.5 times greater than the median tumour dose of [^177Lu]Lu-DOTA-TATE [22]. However, it should be noted that median tumour dose in this pilot study was calculated from a limi ...

[3] = Radioactive metabolites in plasma; assay type: in vivo, human; conditions: 1 min, 4 h, and 1, 2, 3, and 6 days after each administration, two study centres
Procedure: (§1) To generate pharmacokinetic data, blood samples (2 mL) were taken at the stop of infusion (0 min) and 5, 30, and 60 min, 4 h, and 1, 2, 3, and 6 days after the end of each [^177Lu]Lu-satoreotide tetraxetan administration. Urine samples were collected over three intervals within 48 h (0–6 h, 6–24 h, and 24–48 h in part A; 0–4 h, 4–24 h, and 24–48 h in part B) following the first treatment cycle of [^177Lu]Lu-satoreotide tetraxetan. Total activity concentrations in whole blood and urine were determined locally, using a gamma counter calibrated for lutetium-177. In two selected study centres, additional blood samples (2 mL) were collected at 1 min, 4 h, and 1, 2, 3, and 6 days after each [^177Lu]Lu-satoreotide tetraxetan administration to evaluate potential radioactive metabolites in plasma.

[4] = Blood pharmacokinetics (total activity in whole blood, gamma counter); assay type: in vivo, human; conditions: first treatment cycle
Procedure: as §1

[5] = on average, single mean activity 1.0 GBq vs 1.1 GBq, four patients

For `C[C@@H](O)[C@@H]1NC(=O)[C@H](CCCCN)NC(=O)[C@@H](Cc2ccc(NC(N)=O)cc2)NC(=O)[C@H](Cc2ccc(NC(=O)[C@@H]3CC(=O)NC(=O)N3)cc2)NC(=O)[C@H](NC(=O)[C@H](Cc2ccc(Cl)cc2)NC(=O)CN2CCN(CC(=O)O)CCN(CC(=O)O)CCN(CC(=O)O)CC2)CSSC[C@@H](C(=O)N[C@H](Cc2ccc(O)cc2)C(N)=O)NC1=O` [[^177Lu]Lu-satoreotide tetraxetan, metal not drawn] ({DOTA}-[Phe(4-Cl)][dC][Phe(4-NH2)](Dihydroorotyl(S))[dPhe(4-NHCONH2)]KTC[dY]-NH2; disulfide 2-7 (inferred); C-terminus assumed), the “Whole body uptake at 6 days” value [1] is listed as 11.5 % administered activity, the Median tumour dose ([2]; cross-over design, 13 lesions in 4 patients) is listed as 7.0 Gy/GBq and the “Tumour absorbed dose compared with [^177Lu]Lu-DOTA-TATE” value [2, 5] is listed as “three-fold higher”. For the same compound, the “Tumour-to-kidney absorbed dose ratio compared with [^177Lu]Lu-DOTA-TATE” value [2, 5] was “two-fold higher”, the “Median tumour dose relative to [^177Lu]Lu-DOTA-TATE” value ([2]; same tumours and patients, cross-over) was 3.5 times and the “Radioactive metabolites in plasma samples” value [3] was “No radioactive metabolites were observed”. The “Extrapolated area under the concentration-time curve (AUC0–infinity), mean” value [4] was 742.0 ± 303.0 MBq.h/L, the “Terminal blood half-life, mean ± SD” value ([4]; gamma counter) was 110.0 ± 50.1 h and the “Terminal blood half-life, median” value ([4]; gamma counter) was 127 h. For the same compound, the “Blood uptake at 1–5 minutes (peak)” value ([4]; median) was 3.03 % administered activity/L.
